The test system of this series is Escherichia coli TOP10. The experiment in a line: shrunken log2 fold change of peptide-encoding DNA abundance (4.5 h post-induction vs induction); higher = less antimicrobial activity (less host growth inhibition). Conditions: time post-induction: 4.5 h; library: site-saturation at positions 5, 18, 19, 20.
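Further: peptides expressed intracellularly from a pBAD plasmid library in pooled LB shake-flask culture, induced with 0.3% L-arabinose, DNA abundance read by NGS, three biological replicates, DESeq2 with apeglm shrinkage.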

Turning to RRIRPRPPRLPRPRPRPLERPRP, the “shrunken log2 fold change” value came to 0.277.
For RRIRPRPPRLPRPRPRPNNKPRP, the “shrunken log2 fold change” value was -0.542.
The result for RRIRVRPPRLPRPRPRPMDTPRP reads -0.171; that for RRIRVRPPRLPRPRPRPVDDPRP, 0.177; that for RRIRGRPPRLPRPRPRPRRCPRP, 0.548.
The same measure for RRIRCRPPRLPRPRPRPGAAPRP: 0.956; for RRIRNRPPRLPRPRPRPSCHPRP: 1.83; for RRIRWRPPRLPRPRPRPPWLPRP: 0.526.
The result for RRIRARPPRLPRPRPRPRPWPRP reads 0.499; that for RRIRCRPPRLPRPRPRPDDQPRP, 0.23.
For the sequence RRIRIRPPRLPRPRPRPALMPRP, the “shrunken log2 fold change” value is -0.028.
On to RRIRQRPPRLPRPRPRPVLTPRP, for which the “shrunken log2 fold change” value was determined as 0.0694.
The same measure for RRIRSRPPRLPRPRPRPKCKPRP: -0.0132.
The result for RRIRKRPPRLPRPRPRPIECPRP reads -0.0298; that for RRIRARPPRLPRPRPRPQVRPRP, -0.0207; that for RRIRTRPPRLPRPRPRPAGPPRP, -0.257.
The result for RRIRCRPPRLPRPRPRPHHEPRP reads -0.24; that for RRIRVRPPRLPRPRPRPSFCPRP, 0.212.
RRIRRRPPRLPRPRPRPCMYPRP: the “shrunken log2 fold change” value is -0.0801.
The same measure for RRIRRRPPRLPRPRPRPTNLPRP: 0.068; for RRIRSRPPRLPRPRPRPGISPRP: -0.486; for RRIRFRPPRLPRPRPRPIVGPRP: -0.0769.
The result for RRIRERPPRLPRPRPRPHTNPRP reads -0.466.
The result for RRIRLRPPRLPRPRPRPPGHPRP reads 0.224.
Turning to RRIRWRPPRLPRPRPRPAQCPRP, the “shrunken log2 fold change” value is -0.00191.
Consider RRIRWRPPRLPRPRPRPIVTPRP, for which the “shrunken log2 fold change” value was found to be 0.0938.
Consider RRIRYRPPRLPRPRPRPNEPPRP, for which the “shrunken log2 fold change” value came to 0.00196.
The result for RRIRKRPPRLPRPRPRPMMGPRP reads -0.0567; that for RRIRCRPPRLPRPRPRPVCHPRP, -0.294.
RRIRVRPPRLPRPRPRPGEGPRP: the “shrunken log2 fold change” value was 0.62.
The result for RRIRGRPPRLPRPRPRPYHYPRP reads -0.149; that for RRIRKRPPRLPRPRPRPMYGPRP, 0.00748; that for RRIRVRPPRLPRPRPRPLPYPRP, -0.587.
With RRIRNRPPRLPRPRPRPCNHPRP, the “shrunken log2 fold change” value is -0.298.
The result for RRIRCRPPRLPRPRPRPPCHPRP reads 0.3; that for RRIRPRPPRLPRPRPRPLSAPRP, 0.281; that for RRIRARPPRLPRPRPRPYIWPRP, -0.543.
The same measure for RRIRSRPPRLPRPRPRPPWLPRP: 0.462; for RRIRYRPPRLPRPRPRPNNQPRP: -1.05.
Consider RRIRYRPPRLPRPRPRPPVVPRP, for which the “shrunken log2 fold change” value is 0.00632.
Take RRIRVRPPRLPRPRPRPTMQPRP: the “shrunken log2 fold change” value was 0.158.
The result for RRIRLRPPRLPRPRPRPLHIPRP reads -0.367; that for RRIRQRPPRLPRPRPRPQTLPRP, -0.319.
The same measure for RRIRIRPPRLPRPRPRPCELPRP: -0.254.
The result for RRIRGRPPRLPRPRPRPSCSPRP reads 0.295.
For RRIRYRPPRLPRPRPRPNEIPRP, the “shrunken log2 fold change” value was -0.807.
The result for RRIRVRPPRLPRPRPRPLCGPRP reads 0.0478; that for RRIRTRPPRLPRPRPRPPGIPRP, 0.264.
The same measure for RRIRNRPPRLPRPRPRPTLMPRP: 0.0843; for RRIRLRPPRLPRPRPRPFGQPRP: -0.11.
The same measure for RRIRWRPPRLPRPRPRPNLNPRP: -0.401.
On to RRIRLRPPRLPRPRPRPWLDPRP, for which the “shrunken log2 fold change” value is -0.233.
The same measure for RRIRVRPPRLPRPRPRPSVIPRP: -0.239; for RRIRERPPRLPRPRPRPCEIPRP: -0.318; for RRIRPRPPRLPRPRPRPGNHPRP: -0.16.
The result for RRIRLRPPRLPRPRPRPGDSPRP reads -0.23.
The same measure for RRIRKRPPRLPRPRPRPELFPRP: 0.155; for RRIRYRPPRLPRPRPRPTIAPRP: -0.338; for RRIRMRPPRLPRPRPRPYVCPRP: -0.00867.
Regarding RRIRRRPPRLPRPRPRPKLLPRP, the “shrunken log2 fold change” value was 0.178.
The same measure for RRIRNRPPRLPRPRPRPFHRPRP: -0.211.
On to RRIRSRPPRLPRPRPRPNWGPRP, for which the “shrunken log2 fold change” value is -0.0911.
The same measure for RRIRRRPPRLPRPRPRPDQWPRP: 0.224; for RRIRWRPPRLPRPRPRPNCIPRP: -0.0807; for RRIRCRPPRLPRPRPRPGWKPRP: 0.173.
The result for RRIRYRPPRLPRPRPRPKRGPRP reads 0.00607.
The same measure for RRIRERPPRLPRPRPRPVVQPRP: -0.104; for RRIRERPPRLPRPRPRPGEFPRP: 0.033.
For the sequence RRIRPRPPRLPRPRPRPKILPRP, the “shrunken log2 fold change” value was found to be 0.0456.
The same measure for RRIRLRPPRLPRPRPRPNGKPRP: -0.0324; for RRIRRRPPRLPRPRPRPMFMPRP: -0.192.
For the sequence RRIRERPPRLPRPRPRPIDAPRP, the “shrunken log2 fold change” value was found to be 0.0409.
For RRIRRRPPRLPRPRPRPPSIPRP, the “shrunken log2 fold change” value is -0.212.
Turning to RRIRFRPPRLPRPRPRPSMEPRP, the “shrunken log2 fold change” value is -0.202.
The same measure for RRIRCRPPRLPRPRPRPMCQPRP: -0.0371.
The same measure for RRIRGRPPRLPRPRPRPPFHPRP: 0.24; for RRIRRRPPRLPRPRPRPYCNPRP: -0.834.
The result for RRIRHRPPRLPRPRPRPQWIPRP reads -0.031; that for RRIRSRPPRLPRPRPRPWANPRP, 0.0508; that for RRIRHRPPRLPRPRPRPYYTPRP, -0.0493.
Turning to RRIRYRPPRLPRPRPRPIQTPRP, the “shrunken log2 fold change” value was -0.499.
The same measure for RRIRTRPPRLPRPRPRPHACPRP: 0.158; for RRIRTRPPRLPRPRPRPFRRPRP: -0.0209; for RRIRQRPPRLPRPRPRPHEWPRP: 0.114.
The result for RRIRLRPPRLPRPRPRPKYKPRP reads -0.486.
The same measure for RRIRWRPPRLPRPRPRPTENPRP: 0.0907; for RRIRRRPPRLPRPRPRPRNPPRP: 0.345; for RRIRLRPPRLPRPRPRPTESPRP: 0.0515.
RRIRRRPPRLPRPRPRPSFPPRP: the “shrunken log2 fold change” value was found to be 0.0188.
The result for RRIRIRPPRLPRPRPRPCYRPRP reads -0.44; that for RRIRWRPPRLPRPRPRPMLGPRP, 0.464; that for RRIRLRPPRLPRPRPRPCCMPRP, -0.408.
Turning to RRIRIRPPRLPRPRPRPYFYPRP, the “shrunken log2 fold change” value is -0.469.
The result for RRIRVRPPRLPRPRPRPDLEPRP reads -0.0782.
As for RRIRVRPPRLPRPRPRPLTHPRP, the “shrunken log2 fold change” value was -0.439.
The same measure for RRIRLRPPRLPRPRPRPMDDPRP: -0.117; for RRIRHRPPRLPRPRPRPTHIPRP: -0.468.
The result for RRIRQRPPRLPRPRPRPAVWPRP reads 0.939; that for RRIRNRPPRLPRPRPRPQMDPRP, 0.0304; that for RRIRSRPPRLPRPRPRPEMTPRP, -0.0333.
The result for RRIRARPPRLPRPRPRPGLPPRP reads 0.709; that for RRIRPRPPRLPRPRPRPRQNPRP, 0.463; that for RRIRTRPPRLPRPRPRPLALPRP, -0.0853.
Regarding RRIRHRPPRLPRPRPRPKQGPRP, the “shrunken log2 fold change” value is -0.0386.
The result for RRIRIRPPRLPRPRPRPPGTPRP reads 0.029; that for RRIRSRPPRLPRPRPRPIDYPRP, -0.0581; that for RRIRDRPPRLPRPRPRPMSDPRP, 1.13.
The result for RRIRERPPRLPRPRPRPYICPRP reads -0.486.
The result for RRIRWRPPRLPRPRPRPLYVPRP reads -0.836; that for RRIRVRPPRLPRPRPRPIPNPRP, 0.0329.
Consider RRIRHRPPRLPRPRPRPFEHPRP, for which the “shrunken log2 fold change” value was -0.0952.
RRIRYRPPRLPRPRPRPYFNPRP: the “shrunken log2 fold change” value is -1.33.
Regarding RRIRCRPPRLPRPRPRPPGPPRP, the “shrunken log2 fold change” value came out at 0.337.
Consider RRIRGRPPRLPRPRPRPDDCPRP, for which the “shrunken log2 fold change” value was found to be 0.152.
The result for RRIRKRPPRLPRPRPRPSKRPRP reads 0.0981; that for RRIRTRPPRLPRPRPRPYSNPRP, -0.941.
Take RRIRMRPPRLPRPRPRPREPPRP: the “shrunken log2 fold change” value is 0.447.
The same measure for RRIRVRPPRLPRPRPRPRELPRP: -0.0137; for RRIRMRPPRLPRPRPRPGYVPRP: -0.118.
The result for RRIRDRPPRLPRPRPRPIWFPRP reads -0.192; that for RRIRGRPPRLPRPRPRPYPDPRP, 0.201.
The same measure for RRIRKRPPRLPRPRPRPLMAPRP: 0.635; for RRIRKRPPRLPRPRPRPHLSPRP: 0.0468; for RRIRDRPPRLPRPRPRPMSMPRP: 0.017.
Regarding RRIRCRPPRLPRPRPRPVYQPRP, the “shrunken log2 fold change” value was -0.783.

The values above are taken from the supplement of paper PMC9112550, “Optimization of the antimicrobial peptide Bac7 by deep mutational scanning” (BMC Biology, 2022).
